# Reference: the DeepSol protein solubility set
# Assay: soluble on expression in E. coli; label from the status in PepcDB or PDB records
row,Sequence,soluble on expression in E. coli
1,MLDNRPIGVFDSGIGGLTIVKNLMSILPNEDIIYFGDIARIPYGTKSRATIQKFAAQTAKFLIDQEVKAIIIACNTISAIAKDIVQEIAKAIPVIDVITAGVSLVDNLNTVGVIATPATINSNAYALQIHKKNPNIEVYSNPCGLFVSMIEEGFVSGHIVELVAKEYLSYFHDKNIQALILGCTHYPIIKESIAKILDVKLIDPSLQASKMLYSLLFENKLLNTTKSNPEYRFYVTDIPLKFRSVGEMFLQTEMQHLEIVSLDSY,not soluble
2,MLDSVTHSTFLPNASFCDPLMPWTDLFSNEDYYPAFEHQTACDSYWTSVHPEYWTKRHVWEWLQFCCDQYKLDANCISFCHFNISGLQLCSMTQEEFIEAAGICGEYLYFILQNIRSQGYSFFNDAEETKTGIKDYADSSCLKTSGIKSQDCHSRTSLQSSHLWEFVRDLLLSPEENCGILEWEDREQGIFRVVKSEALAKMWGQRKKNDRMTYEKLSRALRYYYKTGILERVDRRLVYKFGKNAHGWQEEKL,soluble
3,MLDTDTITFVNCMHEYICEMDSYPKMNTEIINFESDALRDNYLGDEFRRQILVYTPDSMTDSYPLMIELAGTNWKPRLHNKFANIVEKLFSQGLKAVIANPNFSTKYNINQYINSPAVGNYEDFIITEIVPYLRERYRTGKTALFGKSSGGFGSYTLAVRHPEVINGFADHFGDSCFFYLYADDFAYTYNMLQKYKKSELIEHLLSKRPTDEEMRALNVFGSSAFYSPDLNDPSGFDLPFDENTGEIKENVWSRWKQLDPVKNVKQNLDALKKLDAVYLDVGDSDEYRLYIGSRSLHNKLLEGGIEHHYEEFHGGHFGNSERYLVSLPYLYDALRVKE,not soluble
4,MLDVKSQDISIPEAVVVLCTAPDEATAQDLAAKVLAEKLAACATLLPGATSLYYWEGKLEQEYEVQMILKTTVSHQQALIDCLKSHHPYQTPELLVLPVTHGDTDYLSWLNASLR,not soluble
5,MLEDLRLYQLISPSLPVGSFTYSQGLEWAIEKGWVTNVTELKHWLSNQLMDSLATLELPVLAKLTQLLQQEEWQQAQDWCDFIIANRETKELRLEERQRGLAFSMLLPKLGIELNQTTLPMVKQTQVAAFALAANHWNLTPTKLAAAYAWGWLENAVIVGIKLVPLGQSAGQQLLLEMADVIPQAVEKSQHWPEHLIGSFTPAQVLASSRHESQYTRLFRSLEHHHHHH,soluble
6,MLEILGKASSINVRKVLWTCAELDLPYRREDWGSGFRDTHAAEFLALNPNAMVPVLRDGELVLWESNSIIRYLANRYAGERLYPQQAAPRARVDQWLDWQASDLNRSWSYAFMSLVRQSPAHRDAAQVEASLRGWTGFMEILEGQLLRTGAYVAGETFSLADIAIGLSVNRWYETPFEHPSLPAVRAYYERLGAR,not soluble
7,MLFCTNIAIAQGTIEDYRRAYSAGEKFSANKVSYSNVNPEWIGKTHYFWYVRNTPDGRIYVLVDADTQNRKDLFDHKLVAAALSEASGRKIEATSLYLDRLSVNNGLDTLHFVFNNHRWMYVIDKNQLTDEGALPTPRKQRHWMETDDEKTAAPVTSPDKKYTAFIKNHNIYVKETATGKEKQLSLDGTLGNYYSAYIRWSPDSKKSLPARFVR,not soluble
8,MLFFLIFLGLMATASAKAGRCNEGDQDAHFDSNKFWKCEGGRWIVVTCQINYFYDATTGFCYLSRFPTTRPYPPPFPTRPRPTQGHRCYPGTRIPYPHDHTMFLECSTDGTEYIKRYCQPDAVFVQRENMCVAIQTTYRPTRTWPTTTTTPYYGACKESAGHDGYKPDVYNCKNFYQCASGLWTQRSCGEGTIWDQHKLTCDHNRGQCRPTSPTVQPTYQPTWRPTAYPPNEVKK,soluble
9,MLGDRCAPIKASGVLIGDSVLVTDVEQARSLYSCGYYGQPLDVEKPRGADFEGPLRLSLIESLYLAEKGVLEVAKPDGSSVGVEDLRTAVRGNPRFSMLYNIYRDLRERGFVVRSGLKFGSDFAVYRLGPGIDHAPFIVHAYSPEDNIDPVEIVRAGRLSHSVRKKFVFAVTRGGDVSYLMIDWFRP,soluble
10,MLGMSYLRYVRIIGTVHVSPQSVKEVRNIILRENPDAVAVELDYGRLLSLLNGSSLTFSQAIKLGKIGILAYLLQGVEMALGKQVGVLPGSEMIEAFEVARSLGIPIYMIDMPIQVTLKRLFSVPIEEKIRGIIEIFLSIVYPKVELNLEDYISLELEFKRKYPTVYKILVEERNEFMARNLMRIVDILLERKKKIKIIAVVGLGHKRGIERILSHYSPKSIYLEHHHHHH,not soluble
11,MLGPVLRLVVKAGKERKLRNFYPNLYRDEIAAPPEGVGVAEAVDAEGHFLAVGYYDPRSRVPFRAFRFDPGPLNRAFFQGRFARALRRRQGLGESHRLVHGEADGLPGLVVDRFGEVLVLQVRSRGMEALREVWLPALLEVVAPKGVYERSDVEARRQEGLPERVGVVYGEVPEVLEVEEDGLRFPIPLALAQKTGYYLDQRENRRLFEAMVRPGERVLDVYSYVGGFALRAARKGAYALAVDKDLEALGVLDQAALRLGLRVDIRHGEALPTLRGLEGPFHHVLLDPPTLVKRPEELPAMKRHLVDLVREALRLLAEEGFLWLSSCSYHLRLEDLLEVARRAAADLGRRLRVHRVTYQPEDHPWSLHIPESLYLKTLVLQDDPL,soluble
12,MLGTISMRFFATKVVAPRASVAASTPQVPLGMNINPYAMFIKENFKANTSDMKRTDLMKELSGKWKALSISEKDKYTELSKNYNAQKLDDFMKLSTEEQKKLVDSAKEKKAERASRRHAKERREKRKQSGRPSVPPSAYALFIKEKLSGAGMESKEKMKEAVAQWKAFTDSQKKKYTDEAKKLKDEYHVVLQKWEAEQKENADQ,not soluble
13,MLHILCQGTPFEIGYEHGSAAKAVIARSIDFAVDLIRGKTKKTDEELKQVLSQLGRVIEERWPKYYEEIRGIAKGAERDVSEIVMLNTRTEFAYGLKAARDGATTAYCQLPNGALQGQNWDFFSATKENLIRLTIRQAGLPTIKFITEAGIIGKVGFNSAGVAVNYNALHLQGLRPTGVPSHIALRIALESTSPSQAYDRIVEQGGMAASAFIMVGNGHEAFGLEFSPTSIRKQVLDANGRMVHTNHCLLQHGKNEKELDPLPDSWNRHQRMEFLLDGFDGTKQAFAQLWADEDNYPFSICRAYEEGKSRGATLFNIIYDHARREATVRLGRPTNPDEMFVMRFDEEDERSALNARL,soluble
14,MLHKRFRRYSMLKRYGQIIEVLQKYGFGYIVDQIGLGSFGDFTSRLKKQEKRDEHNLSGPVRTRRILEELGPTYIKLGQLLSMRRDLVPLEYAAEFSKLQDDAPSFGFEEVELIIREELGLPVEDLFESFEKKPLACASIGQVHRAKLKNGDDVVVKVQRPGIKEVIESDLDIMYSLSRLLTEHIPEARLYRPVELVDELSRSILAEIDYSQEGWNTDRFAENFKDSEQIHIPKVYWDYTGLEHHHHHH,not soluble
15,MLIKLGTELTKEEYVTRYMRNFQKLLLLGDRPKVLTNREEQLLQYEKELCVLFYEQFIKKHHRAPDEATLDDQVKANFIERSKIFARSPLVMDEGNFTQAHIGQLKRLRELRMEDYLPDNYTHILQREEELARNYFRKHDDYPFGYECLCISRSREVVNQGLEKLLEGFYDSYQVYYRRYRKNG,not soluble
16,MLIPWQDLSPETLENLIESFVLREGTDYGEHERTLEQKVADVKRQLQCGEAVLVWSELHETVNIMPRSQFRE,soluble
17,MLIVLSLGGSILAKNLDPDRFLKYANALRDISKKHTLLVVTGGGEAARDYIGAARAMGADEVTCDYIGIEITRLNARLLISALGHDAYPEIPSNYPEASKAMTSGKVVVMGGVTPGQTTDAVASILAEYLRADLLTIATSIDGVYSSDPNCDPCAVKYEKISPEKLINIVMAIEMKAGSKSPVDPVAAKIIERCKLDALVMDARNPDLLVEVICGEAAKKSPVSCGTWITAKKMAGDPLEHHHHHH,soluble
18,MLIVRPSGRAAEDVETCLNAGWRAEVLSPVEIEADAAGLELLSEQYARADAVFWVSPTAVETAVPYLNLSDGIKAQIAVGQGSRRALERCLVRTVIAPDDGNDSEAVLRLPVWNSLPEGARVLFVRGHGGRDFLMNALQEKGFRTEVAEVYFRRHKPLNFQNFQTENIAAAYITSTELVRLLFGQLPPQFSRFFKSLLYFTHHPRIAEALKREGVCSVETVPTLEAALSHSSISVSDGMVFPGTSN,not soluble
19,MLKEFKMIEAVAPDMLDVLQERFQILRNIYWMQPIGRRSLSETMGITERVLRTETDVLKQLNLIEPSKSGMTLTERGLEVYQGLELVMNQLLGMHQIEKEMTQYFGIQRCIVVAGDSDIQKKVLSDFGDVLTNTLNLLLPNGENTIAVMGGTTMAMVAENMGSLETEKRHNLFVPARGGIGEAVSVQANSISAVMANKTGGNYRALYVPEQLSRETYNSLLQEPSIQEVLTLISHANCVVHSIGRALHMAARRKMSDDEMVMLKQKNAVAESFGYFFDEEGKVVYKIPRIGLQLKNLQEIPYVVAIAGGKTKAKAIRAYMKNAPKQTWLITDEAAANEILKGVTL,soluble
20,MLKKYLISLDKDIQRRELFFSQKNTEDFQVFSAINTMQKDWDELAAIFNIEQFKAHYFRNVTKGEIGCTLSHLSVYQKIVEDNDIAEDSYALVCEDDALFHSDFQQNLTALLSEKLEAEIILLGQSKINDFNDFDLEINYPTTFSFLCKKTGDVNYAFPYKSYFAGTVGYLIKKSAARRFIQQISQNKPFWLADDFLLFEQNFNIRNKVVRPLIVIENPVLISNLESVRGSLSNNLLKKLMKYPLKKIFAIKKNLAN,soluble
21,MLKLARPFIPPLSRNNAISSGIVLTSRRFQSSFTFLSNQSLLSKNQMKSKRKKGSKKAAYHRQPPEHEHTAPLIKQNKTITKKEHSDVRGSHLKKKRSDFSWLPRVPSTSHLKQSDMTTNVLYSGYRPLFINPNDPKLKEDTGSTLYEFAMKLEDLNEPLSPWISSATGLEFFSEWENIPSELLKNLKPFHPPKEKSMNTNELIHVSAKRNTLVDNKTSETLQRKMDEFSKRRGKGRKKSVVTLLQMKKKLEG,not soluble
22,MLKLLIVDDAMFMRTMIKNIVKDSDFEVVAEAENGLEAVKKYDEVKPDIVTLDITMPEMDGLEALAQIMAKDPSAKVIMCSAMGQQGMVVDAIKKGAKDFIVKPFQADRVLEALEKAAK,not soluble
23,MLKLSKIVLISSLLVLVQQISYAKIGGFELIVNVPIGAGITLVNKNVSVAGNPKLGGNFQIGLEANIGYMFQIMDNMGVSLLGSLGYDFTGFSYSKNNNTENYKNTVHDIYRFLS,not soluble
24,MLKLYVLVYKGEPLDYHEYRHTALYLKLPDNQSFIMHILGTQGMFEYAQIKNKDPSVVGSLAKVVPVADISEVIGSGPIQSTVAKTLVQNGPLDLDWNCQHWVGDALSKLAERKYITVAERAEAIDRMMDACLEAMDD,not soluble
25,MLKSIILLICAHCAFSDRLDAGSQADCVAAANKIYNNEWGFDHKLVYDKELEPFAAETPCGIAYLQNGLAEVGSGGAHTSVNLREEHTRIACVPKKCGGVEVACAVGGPSMALNLKRKIRKLRQIRCLRTFGATVTLKN,not soluble
26,MLKVIDVDFVSDHTLELTFNDGYQGYADLSVYFKKAPFSEIKDFKRFSLTRDGSLNWDGNELTAATLRDITKGSQKSVELSFNVQEMEAVIKQASWESMMEGRPDILQAAIRSYVEQFGHGQVIAKAGIKSRTSAYRSLKPETTPNFGTLVQLGHAVIELAKDRTVANKEPRI,not soluble
27,MLKYEHIAKQLNAFIHQSNFKPGDKLPNVTQLKERYQVSKSTIIKALGLLEQDGLIYQAQGSGIYVRNIADANRINVFKTNGFSKSLGEHRMTSKVLVFKEMATPPKSVQDELQLNADDTVYYLERLRFVDDDVLCIEYSYYHKEIVKYLNDDIAKGSIFDYLESNMKLRIGFSDIFFNVDKLTSSEASLLQLSTGEPCLRYHQTFYTMTGKPFDSSDIVFHYRHAQFYIPSKK,soluble
